Measurements from PMC8764538.

Tested on: T1, LuxT-6xHis (Vibrio harveyi BB120 (ATCC BAA-1116; reclassified Vibrio campbellii BB120)?), ORF:7f3e8717
T1 sequence: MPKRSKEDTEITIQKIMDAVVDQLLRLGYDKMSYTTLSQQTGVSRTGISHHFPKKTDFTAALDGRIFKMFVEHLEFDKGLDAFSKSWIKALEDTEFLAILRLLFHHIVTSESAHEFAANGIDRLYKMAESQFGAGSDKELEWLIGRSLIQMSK
Test: EMSA
Details: EMSA: 20 nM DNA probe, LuxT-6xHis dimer 20-320 nM (1x-16x); buffer, salt, pH and temperature not given (described in cited ref 18)

Sequence	binding
AATCATCAGTTCAATAAAAAAGAGGGCTTCAGCCCTCTTTTTTTATATATTTAATCTTGCCCTCATAATCAGTACGCTGTATTATCAATTACAACCGAACTACGTACTGTTTA (double strand) [PswrZ promoter probe]	binds
GTTTGATCTGCTTAATAAATCTGGTTAAAAGTTATTAATTAACTTTAAAAAAATAACCCAAGATACTAGTGTTTTTTCAAATTCAAAGGAGAAGCTCTTGATATGGA (double strand) [PluxC control probe]	no binding
TGGCATATTTTAAGCTCTTCTCTTTGTAAATCCATCTAACTCACATTTAAATGAGGCCAGAATGAAATCATCCTCAGCATTATGTATTGTATGTCCTTG (double strand) [PluxT promoter probe]	binds
